Measurements from article PMC10121170 (Science Advances, 2023).
Changes are numbered by the printed parent chain. No end group written: not given here.

How the values were obtained:
[1] = biological target: human AURKA_(123–403), kinase domain of Aurora kinase A, wild type (human) (UniProt O14965); assay: ITC
[2] = biological target: T1, AURKA_(123–403) W128A (human, UniProt O14965 123-403, W128A); assay: fluorescence polarisation
T1 sequence: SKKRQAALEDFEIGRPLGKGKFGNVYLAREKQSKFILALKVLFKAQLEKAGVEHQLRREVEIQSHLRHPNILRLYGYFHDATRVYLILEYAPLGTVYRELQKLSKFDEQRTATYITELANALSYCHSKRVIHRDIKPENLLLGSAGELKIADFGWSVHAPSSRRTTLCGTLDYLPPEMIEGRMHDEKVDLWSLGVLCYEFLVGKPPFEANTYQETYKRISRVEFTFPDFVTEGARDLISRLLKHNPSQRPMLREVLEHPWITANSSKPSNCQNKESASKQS

[3] = biological target: the molecule itself; assay: SEC-MALS
[4] = biological target: T2, AURKA region (AURKA_(123–403)C290,393A) of CEP192-AURKA_(chimera) (human, UniProt O14965 123-403, C290,393A | C290,393A); assay: crystal structure
T2 sequence: T1 sequence with A6W, C168A, C271A

In the case of “N-terminal MBP-tagged AURKA-BD of human CEP192 residues 440 to 631 (from UniProt Q8TEP8 440-631) (domain or fragment)”, the Kd [1] is reported as 1200 nM and the stoichiometry N [1] is reported as 1.

B1: FITC-labeled CEP192_(506–536) peptide (peptide)
peptide: EDFRSGSEAFDLIAQDEEEFNKEHQFIQEEN
modifications: also: FITC label, position not given here
B1: binds [2].

B2: CEP192-AURKA_(chimera): CEP192_(506–527) fused to AURKA_(123–403)C290,393A without linker residues (other)
chain: EDFRSGSEAFDLIAQDEEEFNKSKKRQWALEDFEIGRPLGKGKFGNVYLAREKQSKFILALKVLFKAQLEKAGVEHQLRREVEIQSHLRHPNILRLYGYFHDATRVYLILEYAPLGTVYRELQKLSKFDEQRTATYITELANALSYCHSKRVIHRDIKPENLLLGSAGELKIADFGWSVHAPSSRRTTLAGTLDYLPPEMIEGRMHDEKVDLWSLGVLCYEFLVGKPPFEANTYQETYKRISRVEFTFPDFVTEGARDLISRLLKHNPSQRPMLREVLEHPWITANSSKPSNAQNKESASKQS
In the case of B2, the “stoichiometry N” value [3] is reported as 3.

B3: CEP192 region (residues 506–527) of CEP192-AURKA_(chimera) (domain or fragment)
chain: EDFRSGSEAFDLIAQDEEEFNK
B3: binds [4].
